To fix the notation:
B1: (His)10-MBP-DotL(656-783)–IcmSW–LvgA (complex)
chain 1: GQNEPEPVEDIVEEEVEGALTIFSKLRIDPNAPPILVADKEVFSEPLLPINETRNQMITIERLAGAKDKYAGTVANELIKDFQIATSYPPEERDVIDVQELTGIIRDLSAKISAEREKANKKAAEELT
chain 2: MERDISKCMAKIAASMNAKFYLNDRFVSFDEVFSETGLLPAIAKRADQLCSLCLGYGLGATYDESEGALLGIRVVFDEVTPNVLRLLCMTDVMNELIQGGPSRDYTPLDELMYD
chain 3: MPDLSHEASAKYWFEYLDPMIYRVITFMESVENWTLDGNPELEEAMKQLGQELDDIEKIDLGLLAEEDKFIRIVGNIKSGRGLRLLQAIDTVHPGSASRVLIHAEETSLSSSDPAGFFLKRNIVFERLRLLSRVFCQYRLKLVLRALEGDE
chain 4: MADGDIEIKAGFVDTDLDDRKLTMIDDLNNPLAIVERVYLIWWHWADFHLHVISPHIDTITPAIVIEPELIPGSNDHEFVYSIHDSGSKLSTSKSQDMFSAGMSMCKLFYTIEKMVYILVERLKSGGVSMEAEVQIAFAGHEIAQRKAFESIINLPYNVVVTNFDPGIWGEKYLQNVKRLADKGYGYPPESPRKIYMHPVSSGTTARK
notes: copies: + + +

Series [1] deals with T1, SetA (Legionella pneumophila, UniProt Q5ZU30 1-644).
T1 sequence: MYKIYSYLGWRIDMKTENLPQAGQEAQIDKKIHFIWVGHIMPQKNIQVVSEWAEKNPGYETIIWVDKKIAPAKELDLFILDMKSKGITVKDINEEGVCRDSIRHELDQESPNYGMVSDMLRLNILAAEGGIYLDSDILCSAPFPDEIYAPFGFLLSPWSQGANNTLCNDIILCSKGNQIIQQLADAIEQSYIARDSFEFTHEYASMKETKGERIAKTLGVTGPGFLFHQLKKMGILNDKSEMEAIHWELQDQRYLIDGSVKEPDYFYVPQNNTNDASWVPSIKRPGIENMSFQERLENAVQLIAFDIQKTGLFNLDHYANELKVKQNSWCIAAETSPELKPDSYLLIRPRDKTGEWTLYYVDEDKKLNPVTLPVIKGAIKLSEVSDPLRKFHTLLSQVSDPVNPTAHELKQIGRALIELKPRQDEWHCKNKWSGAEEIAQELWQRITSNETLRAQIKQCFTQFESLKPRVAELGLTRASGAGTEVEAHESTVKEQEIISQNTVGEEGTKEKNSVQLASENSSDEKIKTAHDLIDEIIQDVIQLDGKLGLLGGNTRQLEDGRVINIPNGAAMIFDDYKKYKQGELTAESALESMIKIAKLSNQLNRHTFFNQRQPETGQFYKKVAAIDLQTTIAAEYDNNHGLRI
Description: native gel or EMSA. The settings on record: both partners purified. On the technique in general: Mobility shift assays separate free from complexed probe on a gel.

The target in series [2] is VpdB(11-590) (Legionella pneumophila, UniProt Q5ZW60 11-590). Description: BLI. The settings on record: both partners purified.
Series [3] concerns the molecule itself. In words: SEC; […]; 20 mM Tris-HCl (pH 7.5) plus 100 mM NaCl or 300 mM NaCl; […]. For orientation: Size exclusion chromatography separates by hydrodynamic size, large species first.
Series [4] addresses B1. In words: native gel or EMSA. The following applies: both partners purified.

Consider B1, for which the binding result in series [1] was “binds”. The dissociation constant (Kd) (usually the free concentration of one partner at which half of the binding sites on the other are occupied at equilibrium, for simple one-to-one binding) in series [2] is around 400 nM.

B2: SetA(480-644) (domain or fragment)
chain: GAGTEVEAHESTVKEQEIISQNTVGEEGTKEKNSVQLASENSSDEKIKTAHDLIDEIIQDVIQLDGKLGLLGGNTRQLEDGRVINIPNGAAMIFDDYKKYKQGELTAESALESMIKIAKLSNQLNRHTFFNQRQPETGQFYKKVAAIDLQTTIAAEYDNNHGLRI
Take B2: the stoichiometry N (in general, a count of units in the complex or per binding partner) in series [3] amounted to 2.

B3: SetA(480-644) (domain or fragment)
chain: GAGTEVEAHESTVKEQEIISQNTVGEEGTKEKNSVQLASENSSDEKIKTAHDLIDEIIQDVIQLDGKLGLLGGNTRQLEDGRVINIPNGAAMIFDDYKKYKQGELTAESALESMIKIAKLSNQLNRHTFFNQRQPETGQFYKKVAAIDLQTTIAAEYDNNHGLRI
As to B3, the binding result in series [4] is recorded as “binds”. With ENETLVSSFKQRLQNIKG [(His)10-YFP-SidH(2183-2200)], in series [4], the binding result was “binds”.
